Measurements from patent US10429300B2, “Surface plasmon resonance approach to monitor protein-ligand interactions” (The Johns Hopkins University, priority 2015, dated 2019).

Assays:
[1] = biological target: T1, rNav1.2a VSD IV paddle peptide (R1629A/L1630A, SEQ ID NO: 4) (Rattus norvegicus, UniProt P04775, L1630A/R1629A); experiment: SPR on immobilized rNav1.2a VSD IV paddle peptide; assay type: binding
T1 construct: purchased ProteoGenix; host or cells: chemical synthesis (Fmoc solid phase)
T1 sequence (P04775 1605-1636 R1629A/L1630A): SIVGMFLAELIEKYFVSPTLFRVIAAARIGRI

rNav1.2a = conditions: cited from earlier work
[2] = tested on: rNav1.2a/Kv2.1 VSD II paddle chimera; experiment: Two-electrode voltage-clamp, rNav1.2a/Kv2.1 VSD II paddle chimera in Xenopus oocytes; assay type: cell-based, rat
Sequence of rNav1.2a/Kv2.1 VSD II paddle chimera (P04775 832-856 limits assumed, stated change not applied): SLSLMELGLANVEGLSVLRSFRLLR
Text: The DNA sequence of rat (r)Nav1.2a (provided by A. Goldin, University of California, Irvine, Irvine, Calif.), rKv2.1 (provided by K. J. Swartz, National Institutes of Health), and the rNav1.2a/Kv2.1 VSD II or IV chimera was confirmed by automated DNA sequencing, and cRNA was synthesized using T7 polymerase (mMessage mMachine™ kit; Life Technologies) after linearizing the DNA with appropriate restriction enzymes. Channels were expressed in Xenopus oocytes (obtained from Xenopus 1) and studied after a 1-d incubation after cRNA injection (incubated at 17° C. in 96 mM NaCl, 2 mM KCl, 5 mM HEPES, 1 mM MgCl2, 1.8 mM CaCl2, and 50 μg/ml gentamycin, pH 7.6 with NaOH) using two-electrode voltage-clamp recording techniques (OC-725C; Warner Instruments) with a 150-μl recording chamber. Data were filtered at 4 kHz and digitized at 20 kHz using pClamp™ 10 software (Molecular Devices). Microelectrode resistances were 0.5-1.5 MΩ when filled with 3 M KCl. For Kv chimera channel experiments, the external recording solution contained (mM): 50 KCl, 50 NaCl, 5 HEPES, 1 MgCl2, and 0.3 CaCl2, pH 7.6 with NaOH. For rNav1.2a experiments, the external recording solution contained (mM): 100 NaCl, 5 HEPES, 1 MgCl2, and 1.8 CaCl2, pH 7.6 with NaOH. All experiments were performed at ˜22° C. Leak and background conductances, identified by blocking the channel with agitoxin-2 (provided by K. J. Swartz), have been subtracted for all of the Kv channel currents shown. […]. After the addition of the toxin to the recording chamber, the equilibration between the toxin and the channel was monitored using weak depolarizations elicited at 5- or 10-s (R1629A/L1630A mutant) intervals. Voltage-activation relationships were obtained by measuring tail currents for Kv channels or steady-state currents and calculating conductance for Nav channels, and a single Boltzmann function was fitted to the data according to I/Imax=[1c+cexp(−zF(Vc−cV1/2)/RT)]^−1, where I/Imax is the normalized tail-current amplitude, z is the equivalent charge, V1/2 is the half-activation voltage, F is Faraday's constant, R is the gas constant, and T is temperature in kelvin. For all channels, voltage-activation relationships were recorded in the absence and presence of toxin. The ratio of currents (I/I0) recorded in the presence (I) and absence (I0) of toxin was calculated for voltages typically ranging from −140 to 10 cmV, depending on the construct. […] The apparent equilibrium dissociation constant (apparent KD) for Kv channels was calculated according to KD=((1/(1c−cFu^1/4))c−c1)[toxin], assuming four independent toxin-binding sites per channel. Results are given as mean±SEM unless noted otherwise. Offline data analysis was performed using Clampfit 10™ (Molecular Devices), Origin 8.0™ (OriginLab), and Excel™ (Microsoft). […]

[3] = heterogeneous ligand model, 15-2,000 nM toxin, 50 fmol peptide, n=3, mean±SD
[4] = heterogeneous ligand model, 50 fmol peptide
[5] = heterogeneous ligand model, 50 fmol peptide, n=3, mean±SD

B1: AaHII: Nav channel-selective α-scorpion toxin from Androctonus australis hector; model toxin (protein)
chain: VKDGYIVDDVNCTYFCGRNAYCNEECTKLKGESGYCQWASPYGNACYCYKLPDHVRTKGPGRCH
association rate ka1 [1, 3]: 2330 ± 910 M⁻¹ s⁻¹
association rate ka2 [1, 3]: 38200 ± 4700 M⁻¹ s⁻¹
dissociation rate kd1 [1, 3]: 0.000979 ± 0.00014 s⁻¹
dissociation rate kd2 [1, 3]: 0.0281 ± 0.0058 s⁻¹
RUmax1 [1, 4]: 135
RUmax2 [1, 4]: 23
high affinity KD1 (kd1/ka1) [1, 5]: 479 ± 241 nM
lower affinity KD2 (kd2/ka2) [1, 5]: 747 ± 203 nM
Kd (rNav1.2a; WT rNav1.2a, read-out: affinity of the toxin for WT rNav1.2a): ~5 nM
interaction with VSD II paddle chimera [2]: no interaction was observed

B2: CssIV: β-scorpion toxin from Centruroides suffusus suffusus (protein)
chain: KEGYLVNSYTGCKFECFKLGDNDYCLRECRQQYGKGSGGYCYAFGCWCTHLYEQAVVWPLPNKTCN
SPR binding to VSD IV paddle peptide ([1]; 100 nM toxin, 500 fmol peptide): no RUs could be detected
effect on WT rNav1.2a gating (rNav1.2a; 100 nM toxin): clearly influences WT rNav1.2a gating
concentration required to begin inhibiting the chimera [2]: 1 µM
depolarizing shift in V1/2 ([2]; 1 μM toxin, Boltzmann fit, n=3): ~14 mV
V1/2 in the presence of toxin ([2]; 1 μM toxin, control 33±2 mV): 47±1 mV
